Laboratory results as given in publication PMC6318295, “Plant HP1 protein ADCP1 links multivalent H3K9 methylation readout to heterochromatin formation” (Cell Research, 2018).

B1: H3K9me3S10ph (peptide)
chain: ARTKQTARKSTGGKA
modifications: trimethyl-Lys9, phospho-Ser10 (mature H3 numbering; precursor 10 and 11). Taken as the ITC peptide of Fig. 1e with limits 1-15 from the paper's other H3K9me peptides; the text uses the same name for the Aurora B-treated MLA nucleosome array, which is a different molecule
B2: Aurora B: human Aurora B kinase, causes S10 phosphorylation (protein, UniProt Q96GD4 1-344, looked up)
Aurora kinase B: MAQKENSYPWPYGRQTAPSGLSTLPQRVLRKEPVTPSALVLMSRSNVQPTAAPGQKVMENSSGTPDILTRHFTIDDFEIGRPLGKGKFGNVYLAREKKSHFIVALKVLFKSQIEKEGVEHQLRREIEIQAHLHHPNILRLYNYFYDRRRIYLILEYAPRGELYKELQKSCTFDEQRTATIMEELADALMYCHGKKVIHRDIKPENLLLGLKGELKIADFGWSVHAPSLRRKTMCGTLDYLPPEMIEGRMHNEKVDLWCIGVLCYELLVGNPPFESASHNETYRRIVKVDLKFPASVPMGAQDLISKLLRHNPSERLPLAQVSAHPWVRANSRRVLPPSALQSVA

Columns and labels:
[1] = target: ADCP1 Agenet 3/4 domain (amino acids 201-355) (Arabidopsis thaliana) (UniProt Q500V5); assay: ITC; H3 peptides (usually 1 mM) titrated into ADCP1 tandem Agenet domains (0.05-0.1 mM); 25 °C; 100 mM NaCl, 20 mM Tris-HCl, pH 7.5; MicroCal PEAQ-ITC; 'One Set of Sites' fitting model
[2] = target: ADCP1 Agenet 1/2 domain (amino acids 31-177) (Arabidopsis thaliana) (UniProt Q500V5); assay: as above
[3] = target: ADCP1 (Agenet Domain Containing Protein 1) Agenet 1/2, 31-177 (UniProt Q500V5); assay: ITC; conditions: reference: H3K9me2 peptide; sites S10
[4] = target: ADCP1 (Agenet Domain Containing Protein 1) Agenet 3/4, 201-355 (UniProt Q500V5); assay: ITC; conditions: reference: H3K9me2 peptide; sites S10
[5] = target: ADCP1 (Agenet Domain Containing Protein 1) Agenet 5/6, 376-517 (UniProt Q500V5); assay: ITC; conditions: reference: H3K9me2 peptide; sites S10
[6] = target: T1, ADCP1 Agenet 1/2 domain (amino acids 31-177) (Arabidopsis, UniProt Q500V5 31-177); assay: ITC
T1 chain: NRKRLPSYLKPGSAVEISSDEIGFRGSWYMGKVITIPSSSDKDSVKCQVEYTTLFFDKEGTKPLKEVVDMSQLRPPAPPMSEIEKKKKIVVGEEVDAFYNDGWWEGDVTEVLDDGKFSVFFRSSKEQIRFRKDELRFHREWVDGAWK

ADCP1-H3K9me3 NA = assay: Aurora B treatment of phase-separated ADCP1-H3K9me3 NA; type: biochemical; conditions: kinase 5 µM, ATP 50 µM, 30 °C, 5 h
Method: (§1) Aurora B kinase, ATP (NEB, P0756S) and 10 × kinase buffer (CST, 9802S) were added to the nucleosome array. The final concentration of kinase was 5 µM and ATP was 50 µM. The mixture was incubated at 30 °C for 5 h. The reaction product was detected by the ph-H3S10 antibody (Abcam, ab5176).
(§2) ADCP1 Agenet domain 1-4 (1-355 aa) and Agenet 3-6 (201–517 aa) proteins were stored in 20 mM HepesNa, pH 7.4, 150 mM NaCl. A 1:1 molar ratio of Alex 488 (Invitrogen, A10254, dissolved in DMSO) was added into ADCP1 and the mixture was incubated at room temperature for 1 h. The excess dye was removed using MicroSpin G-50 column (GE Healthcare, 27533001). DAPI was added to native/K9me3/K9me3S10A 12× nucleosome array to label the DNA. Protein and nucleosome array were diluted to a proper concentration. Equal volume of nucleosome array and ADCP1 were mixed in a 384 well glass bottom plate (Cellvis, P384-1.5H-N). For Fig. 6a, the concentrations of three proteins were 30 μM. […] The sample volume in each well was 5–10 μL. After 1 h incubation at room temperature, images were captured by Nikon A1RMP confocal microscope with 100 × oil objective. For FRAP analysis, mean fluorescence intensities from five regions of interests (ROIs) of time-lapse images were computed. ROI-1 was the bleached droplet, ROI-2 was a non-bleached droplet, ROI-3 was a background region. NIS-element software was used for data analysis.

[7] = tested on: H3(S10A)K9me3 NA with ADCP1; assay: Aurora B treatment of phase-separated ADCP1-H3(S10A)K9me3 NA; type: biochemical; conditions: kinase 5 µM, ATP 50 µM, 30 °C, 5 h
Method: as §1, §2

Chain of ADCP1 Agenet 3/4 domain (amino acids 201-355) (Arabidopsis thaliana) (Q500V5 201-355): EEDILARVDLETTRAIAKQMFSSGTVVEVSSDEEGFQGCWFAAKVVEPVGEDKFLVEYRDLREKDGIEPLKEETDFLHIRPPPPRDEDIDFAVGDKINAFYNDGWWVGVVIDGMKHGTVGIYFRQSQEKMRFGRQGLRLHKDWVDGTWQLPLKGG

Molecule	Ka [1] [M⁻¹]	stoichiometry N [1]	Ka [2] [M⁻¹]	stoichiometry N [2]	also measured
H3(1-15)K9me2S10ph peptide	10000	1			
H3(1-15)K4me3 peptide	24000	0.971	19000	1.12	
histone H3 (synthetic H3 peptides) 1-15 (from UniProt P59226) H3K9me2S10ph peptide					binding against the reference [3]: weaker; binding against the reference [4]: weaker; binding against the reference [5]: weaker
H3(1-15)K9me2 peptide			333000	1.01	
B1					Kd [6]: 42.5 µM
B2					dissolution of phase transition by Aurora B, H3K9me3 NA (ADCP1-H3K9me3 NA): phase transition of the former but not the latter can be dissolved by Aurora B treatment; dissolution of phase transition by Aurora B, H3(S10A)K9me3 NA [7]: not the latter can be dissolved by Aurora B treatment
